From patent publication US20250215091A1, “Anti-GAL3 Antibodies and Compositions” (Les Laboratoires Servier, priority 2022, published 2025) come the findings set out here.

As usually defined, the EC50 is the concentration at which the effect is half-maximal. A higher EC50 goes with a need for much substance. For orientation: Kd means the constant that tells how readily two partners part at equilibrium. The term IC50 denotes the concentration needed to halve the response being measured. Low values mean higher potency, high ones lower potency.

In assay [1] the target is T1, full length mouse Galectin-3 (mouse, UniProt P16110 2-264).
T1 construct: Printed as 'full length'; recombinant, immobilized through a histidine tag; also called m-Gal3-FL; murine Gal3
The assay is described as follows: dose-response ELISA on immobilized m-Gal3-FL, IgG. The procedure: (§1) To determine the half maximal effective concentration (EC50) of the antibodies, ELISA dose-response experiments were performed on Hu-Gal3-FL and on m-Gal3-FL.
(§2) Hu-Gal3-FL and m-Gal3-FL were immobilized at 3 μg/mL through their His-tag on functionalized microplates as before. A 3.3-fold serial dilution was carried-out with the purified IgGs, added to the wells containing immobilized Hu-Gal3-FL or m-Gal3-FL and detected with an anti-Fab.HRP antibody.

The target of assay [2] is T1, full length mouse Galectin-3. As to the kind of experiment: ratio of the ELISA EC50 values on Hu-Gal3-FL and m-Gal3-FL. The procedure:
as §1, §2
A general note: In an ELISA, binding on a coated surface is turned into a signal by an enzyme label.

The target is the same in assay [3]. The assay is described as follows: SPR Biacore T-200, antibody captured by anti-human Fc, Gal3 in solution. Here is the method: (§3) The CM5 sensor surface was first immobilized with an anti-human Fc mAb using a standard protocol. The entire sensor surface was first activated by injecting a 1:1 (v/v) mixture of 400 mM EDC and 100 mM NHS at a flow rate of 10 μL/minute for 7 minutes. Monoclonal anti-human Fc antibody (Millipore AP113), 25 μg/mL in Na acetate pH5, 360 s were flowed at 10 μL/minute to reach 10000 RU on both flow cells followed by the injection of 1 M ethanolamine, pH8.5 for 7 minutes at a flow rate of 10 μL/minute. During the entire immobilization procedure, HBS-P was used as the running buffer.
(§4) Antibody samples were prepared at 5 μg/ml and were injected for 30 seconds at 10 μL/minute. In general, 400 to 680 resonance units of antibodies were captured on the chip.
Background: In SPR one partner is held on a chip, and binding of the other changes the refractive index at the surface.

Assay [4] addresses T2, full length human Galectin-3 (human, UniProt P17931 2-250).
T2 construct: Printed as 'full length'; recombinant, immobilized through a histidine tag; also called hu-Gal3-FL; Hu-Gal3-FL
Described as above. The procedure:
as §3, §4

Assay [5] deals with T3, human full-length Galectin-1 (human, UniProt P09382 2-135).
T3 construct: full-length; Histidine-tagged; also called Hu-Gall; Gall
As to the kind of experiment: ELISA on immobilised antigen (3 µg/mL), purified IgG at 15-20 µg/mL, anti-Fab.HRP, OD 450 nm. Here is the method:
(§5) IgG specificity to Gal3 was tested by checking the absence of binding on human Gall and Gal7 by ELISA.
(§6) Hu-Gall and Hu-Gal7 were immobilized at 3 μg/mL. Purified IgGs were added into the wells (15-20 μg/mL final concentration) and detected with an anti-Fab.HRP antibody. Rabbit antibodies directed against Gall (Abcam ab25138 reference) and Gal7 (Abcam ab108623 reference) were used at 5 μg/mL as antigen-coating positive controls and detected with an anti-rabbit.HRP secondary antibody (7074S-Cell Signaling reference).

Assay [6] has as its target T4, human full-length Galectin-7 (human, UniProt P47929 1-136).
T4 construct: full-length; Histidine-tagged; also called Hu-Gal7; Gal7
The assay is described as above. Here is the method:
as §5, §6

Assay [7] addresses T5, CRD domain of human Galectin-3 (human, UniProt P17931 106-250).
T5 construct: Histidine-tagged; also called hu-Gal3-CRD; Hu-Gal3-CRD
The assay is described as follows: competitive ELISA, inhibition of ASF binding to immobilized Hu-Gal3-CRD. The procedure: The inhibitory properties and IC50 of the anti-Gal3 antibodies were determined in an ELISA competitive assay by measuring the binding of ASF to immobilized CRD domain of human Gal3 in absence or presence of the antibodies at different concentrations.
The inhibition assay was performed on Hu-Gal3-CRD which was immobilized at 1 μg/mL through its His-tag on functionalized microplates. A 2-fold or 3-fold serial dilution was carried-out with the purified IgGs and added to the wells with immobilized Hu-Gal3-CRD. ASF (A1908-Sigma reference) was added at 8 μg/mL in each well with or without IgGs. ASF binding to Hu-Gal3-CRD was detected with the HRP-labeled anti-ASF sheep antibody. IC50 were estimated according to the model equation Y=Bottom+(Top−Bottom)/(1+(X/IC50)). Indicative maximal percentages of inhibition were obtained with the formula: 100%−(((mean of bottom plateau values of IgGs)×100%)/mean of irrelevant IgG values)

Assay [8] deals with T6, Gal3 CRD domain from dog (dog, UniProt P38486 152-296, limits assumed).
T6 construct: domain: CRD domain; also called dog Gal3-CRD
T6 sequence (looked up): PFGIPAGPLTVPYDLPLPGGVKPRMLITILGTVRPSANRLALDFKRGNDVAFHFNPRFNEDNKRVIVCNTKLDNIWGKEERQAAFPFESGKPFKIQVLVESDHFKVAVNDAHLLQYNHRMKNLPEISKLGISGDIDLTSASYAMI
The assay is described as follows: SPR single-cycle kinetics, captured antibody, Gal3-CRD 0.5-50 nM. Here is the method:
as §3, §4
(§7) Kd values were also determined by SPR using […] kinetics analysis. A total of 5 concentrations of Gal3 CRD domain from human, dog, rat and cynomolgus (Novalix) [0.5-50] nM were injected over the antibody capture surfaces for 210 seconds followed by a dissociation phase of 600 seconds at 30 μL/minute. At the end of each cycle, capture surfaces were regenerated by 2 injections of glycine pH 1.5, for 30 seconds at 10 μL/minute, followed by an extra wash with glycine pH 1.5. Fresh antibody was captured at the beginning of each cycle.

The target in assay [9] is T7, Gal3 CRD domain from rat (rat, UniProt P08699 118-262, limits assumed).
T7 construct: domain: CRD domain; also called rat Gal3-CRD
T7 sequence (looked up): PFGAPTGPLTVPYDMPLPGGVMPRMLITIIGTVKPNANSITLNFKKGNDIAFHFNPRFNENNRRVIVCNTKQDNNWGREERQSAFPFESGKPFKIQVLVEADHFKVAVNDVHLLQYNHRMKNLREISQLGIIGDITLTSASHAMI
Described as above. The procedure: as §3, §4, §7

For assay [10], the target named is T8, Gal3 CRD domain from cynomolgus (cynomolgus, UniProt A0A7N9CYL1 103-247).
T8 construct: domain: CRD domain; also called cynomolgus Gal3-CRD
Described as above. The procedure:
as §3, §4, §7

Assay [11] concerns the target T5, CRD domain of human Galectin-3. The description is as above. The procedure:
as §3, §4, §7

In assay [12] the target is T2, full length human Galectin-3. The assay is described as follows: dose-response ELISA on immobilized Hu-Gal3-FL, IgG. The procedure: as §1, §2
The subject of assay [13] is rat model of ARDS. The assay is described as follows: Rat ARDS model (LPS challenge): neutrophils counts in BALF. Type of assay: in vivo. As to conditions: antibodies 14 mg/kg x3 prior to LPS; dexamethasone 10 mg/kg oral; vs LPS group; FIG. 16. Here is the method:
(§8) Positive control rats received 3 doses of sterile phosphate buffer at day minus 11, minus 6 and minus 1 prior LPS challenge (0.25 mg/kg by subcutaneous route at day 1). Negative control rats received one oral dose of Dexamethasone at 10 mg/kg (dissolved in 0.5% carboxymethyl cellulose in deionized water) 2 hours prior LPS challenge (0.25 mg/kg by subcutaneous route at day 1). LPS (lipopolysaccharide) causes an acute inflammatory response, whereas dexamethasone has anti-inflammatory effects thus being the reference treatment in this model.
(§9) Antibody-treated rats received 3 doses of antibodies (14 mg/kg) at day minus 11, minus 6 and minus 1 prior to LPS challenge (0.25 mg/kg by subcutaneous route at day 1). Each antibody was solubilized in sterile PBS before injection.
(§10) Control rats of the experiment received 3 doses of sterile phosphate buffer at day minus 11, minus 6 and minus 1 without LPS challenge at day 1.
The impact of anti-Gal3 antibody treatment in LPS challenged rats were evaluated by quantification of neutrophils in Bronchoalveolar Lavage Fluid and compared to the positive control group (LPS challenge with PBS treatment) (FIG. 16). […] Neutrophils numeration levels were decreased after treatment with anti-inflammatory dexamethasone.

Assay [14] relates to murine model of HOCI-induced fibrosis. The assay is described as follows: HOCI-induced murine fibrosis model: skin thickness. Type of assay: in vivo, mice. Particulars: second experiment, sustained effect until day 63. Here is the method:
In a first experiment, control mice (n=12) received a daily intradermal injection of 300 μL of sterile phosphate buffer saline (PBS) for 5 consecutive days per week, for a duration of 42 days. HOCI alone and HOCI with antibody (HOCI-antibody) treated mice (n=12 per group) received a daily intradermal injection of 300 μL of HOCI for 5 consecutive days per week, for a duration of 42 days. Antibody-treated mice also received a subcutaneous injection of 20 mg/kg antibody, starting at day minus one and every 5 days between day 5 and day 40. Each antibody was solubilized in sterile, endotoxin-free PBS before injection. In a second experiment, the same protocol was applied, except that duration of the study was 63 days and antibodies were given every 7 days starting at day minus 1 until day 62.
Mice that received daily injection of HOCI were also treated by intratracheal instillation of 0.5 mg/kg of TD139 compound (HOCI-TD139), a small molecule Gal3 inhibitor. In a first experiment, the administrations started from day 21 and the compound was given every 3 days until day 39. In a second experiment, the administrations started from day 20 and the compound was given every 3 days until day 62. TD139 was initially dissolved in 100% DMSO then diluted 50-fold in endotoxin-free PBS before administration.
The evolution of skin thickness was monitored by using an external caliper, every seven days until sacrifice.

Assay [15] deals with plasma TNF alpha. The assay is described as follows: Rat ARDS model (LPS challenge): plasma TNF alpha (MSD). Type of assay: in vivo. As to conditions: 4 h following LPS challenge; vs LPS group; FIG. 18. The procedure:
as §8, §9, §10
For all rats, plasma sampling was performed 4 h following LPS challenge.
The impact of anti-Gal3 antibody treatment in LPS challenged rats were evaluated on plasma cytokine levels, namely TNF alpha and KC-GRO cytokines, and compared to the positive control group (LPS challenge with PBS treatment) (respectively FIG. 18A and FIG. 18B). TNF alpha and KC-GRO were quantified by using the MSD technology from Mesoscale.

Assay [16] concerns rat model of ARDS. The assay is described as follows: Rat ARDS model (LPS challenge): total BALF protein (BCA assay). The assay is classed as in vivo. As to conditions: antibodies 14 mg/kg x3 prior to LPS; dexamethasone 10 mg/kg oral; vs LPS group; FIG. 17. Here is the method: as §8, §9, §10
The impact of anti-Gal3 antibody treatment in LPS challenged rats were evaluated by quantification of proteins (by BCA assay) in BALF and compared to the positive control group (LPS challenge with PBS treatment) (FIG. 17). The presence of protein in BALF reflects the damage to the air-blood barrier. […] Total BALF protein numeration levels were decreased after treatment with anti-inflammatory dexamethasone.

T1 sequence (P16110 2-264 limits assumed): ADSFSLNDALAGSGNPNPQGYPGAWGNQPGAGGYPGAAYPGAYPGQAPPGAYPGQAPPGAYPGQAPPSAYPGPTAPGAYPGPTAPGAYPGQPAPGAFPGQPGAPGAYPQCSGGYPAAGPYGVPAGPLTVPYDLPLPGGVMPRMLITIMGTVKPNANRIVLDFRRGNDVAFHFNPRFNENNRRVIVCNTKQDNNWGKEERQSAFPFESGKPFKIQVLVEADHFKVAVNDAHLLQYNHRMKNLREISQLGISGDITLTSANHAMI
T5 sequence (P17931 106-250 limits assumed): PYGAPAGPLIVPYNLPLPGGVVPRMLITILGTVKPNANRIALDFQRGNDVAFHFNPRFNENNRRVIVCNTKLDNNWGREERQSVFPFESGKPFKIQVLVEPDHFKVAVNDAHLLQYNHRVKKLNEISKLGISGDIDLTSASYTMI
T2 sequence (P17931 2-250 limits assumed): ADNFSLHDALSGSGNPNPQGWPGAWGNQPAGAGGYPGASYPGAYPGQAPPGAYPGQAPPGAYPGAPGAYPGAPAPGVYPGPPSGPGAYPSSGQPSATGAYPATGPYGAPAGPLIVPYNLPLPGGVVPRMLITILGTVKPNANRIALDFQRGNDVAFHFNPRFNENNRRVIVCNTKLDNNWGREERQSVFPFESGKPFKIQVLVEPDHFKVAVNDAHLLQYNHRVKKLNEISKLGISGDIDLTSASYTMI
T4 sequence (P47929 whole entry): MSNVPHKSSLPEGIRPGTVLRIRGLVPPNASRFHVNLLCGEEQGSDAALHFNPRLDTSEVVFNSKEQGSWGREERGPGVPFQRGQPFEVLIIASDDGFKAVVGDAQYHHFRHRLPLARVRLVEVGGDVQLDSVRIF
T3 sequence (P09382 2-135 limits assumed): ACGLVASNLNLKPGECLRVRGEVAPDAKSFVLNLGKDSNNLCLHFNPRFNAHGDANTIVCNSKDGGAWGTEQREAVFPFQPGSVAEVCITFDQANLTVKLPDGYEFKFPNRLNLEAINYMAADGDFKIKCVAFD

B1: anti-Gal3 antibody H10 (antibody, V domains shown)
VH: EVQLVESGGSLVKPGGSLRLSCAASGFTFSNYYMNWVRQAPGKGLEWISYINGASRDISYADFVKGRFTISRDNAKNSLYLQMNSLRAEDTAVYYCVRSSYGYSNYGSGMDVWGRGTLVTVSS
VL: QSVLTQPASVSGSPGQSITISCAGTSSDVGGSYNVAWYQQHPGKAPKLMIYNDANRPSGVSNRFSGSKSGNTASLTISGLQAEDEADYYCSSNTADSTRVFGGGTKLEIK
As for B1, the EC50 in assay [1] was found to be 5.9 nM; in [12], 0.2 nM. The “Ratio (Human/mouse Gal3 EC50 ratio)” value in [2] amounted to 30. Moreover, the Kd in [3] was found to be 2.72 nM; in assay [4], 4.5 nM; in [8], 24 nM; in assay [9] it was 12 nM; in assay [10] it was 5.6 nM; in [11], 8.2 nM. In addition, the binding result in assay [5] and in assay [6] was “no binding (tested: 15-20 µg/mL)” throughout. For the same molecule, the IC50 in [7] worked out at 2.7 nM. The molecule further registered a Max % inhibition in [7] of 89%.

B2: H10: anti-Gal3 monoclonal antibody, IgG1 format; VH SEQ ID NO 44, VL SEQ ID NO 45 (antibody, V domains shown)
VH: B1 VH
VL: B1 VL
B2: the “neutrophils counts in BALF” value in assay [13] was “also decreased”. In addition, in assay [14] (63 days, antibody 20 mg/kg s.c. every 7 days, FIG. 7B), the “HOCI-induced increase in skin thickness” value is reported as “significantly reduced”. In assay [14], the “day from which reduction of skin thickness was significant” value turned out to be 14 days. Moreover, the “TNF alpha plasma levels” value in assay [15] was “also decreased, displaying an intermediary profile”. Moreover, the “total BALF protein” value in assay [16] is recorded as “also decreased”.
